Reference: patent US9289468B2, “Fusion protein comprising circularly permuted form of trail/Apo2L, coding gene and use thereof” (Beijing Sunbio Biotech Co. Ltd., priority 2011, dated 2016)
“Also recorded” adds a separate entry of the source.

Tests used:
[1] = tested on: human lung cancer cell line NCI-H460; assay: TUNEL staining of apoptosis; assay type: cell-based; conditions: 15 ng/ml, 4 h
Protocol: FIG. 4. TUNEL assay of apoptosis of human lung cancer cell line NCI-H460 induced by NCPT-1.M1. The NCI-H460 cells were incubated with NCPT-1.M1 (15 ng/ml) for 4 h and then prepared as smears before TUNEL staining. […] In control group, nucleus remains intact, and no characteristic brown stained chromatins are seen (A).
During the process of apoptosis, the genomic DNA can be broken into double-strand, low molecular weight DNA fragments and high molecular weight single-stranded DNA fragments with broken ends (gaps), and these DNA strand gaps can be identified using enzyme-labeled nucleotide 3′-terminal labeling method. In the case of catalytic action of terminal deoxynucleotidyl transferase (TdT), FITC-labeled nucleotide can be incoporated to the free 3′ end nucleotide with template-independent manner, and thereby making the gap of the DNA strand labeled (TUNEL method). The labeling FITC can be recognized by horseradish peroxidase (POD) conjuncated sheep-derived Fab fragment. Upon development with DAB (3,3-diaminobenzidine), the cells stained as brown, which were apoptotic cells, were examined under light microscopy. TUNEL technique is a common method to detect apoptosis. The apoptosis upon incubation of NCI-H460 cell with NCPT-1.M1 was examined using TUNEL technique. […]

[2] = tested on: human MM RPMI8226 tumor cells; assay: Apoptosis-inducing activity in vivo, RPMI8226 xenograft; set-up: species or system Balb/c nu athymic nude mice
Description: Athymic nude mice were subcutaneously inoculated with human MM RPMI8226 tumor cells and treated with NCPT-1.M1, then tumor tissue was resected and subjected to conventional HE staining (A, B) and TUNEL staining of apoptotic cells (C, D).
Balb/c nu athymic nude mice (Beijing Huafukang Biotechnology Co., Ltd.) were subcutaneously inoculated with human MM RPMI8226 tumor cells. When the tumor grew to the volume of 700-800 mm3, the mice were divided into a control group (n=3) and a CPT treatment group (n=3), and were intraperitoneally injected with control or NCPT-1.M1 at a dose of 15 mg/kg once a day for 3 consecutive days. On day 4, the tumor volumes were measured (method same as the above), all animals were sacrificed, the tumors were resected and fixed in 10% formaldehyde solution. The tumor tissues were embedded in paraffin, cut into sections, and HE stained following the conventional methods. The apoptotic assay of the paraffin-embedded tissue sections were carried out following instructions of TUNEL Apoptosis Detection Kit (ZK-8005, Beijing Zhongshan Golden Bridge Biotechnology Co., Ltd.). […] To the contrary, the nucleus of normal cells are light blue or blue (FIG. 7A). Upon TUNEL staining, the nuclei of apoptotic cells are stained as brown (FIG. 7D).

NCI-H460 cells [3] = assay: Assay of killing activity on lung cancer cell line (crystal violet, IC50); assay type: cell-based, human
Protocol: The NCI-H460 cells (ATCC) were cultured in flasks until logarithmic growth phase, digested with 0.25% trypsin (Amresco), collected by centrifugation (1000 rpm, 5 min), resuspended in RPMI1640 medium (Invitrogen) containing 3% fetal bovine serum (FBS), counted and adjusted to 1.5×10^5/ml cell suspension, added into 96-well culture plates (Nunc) at 100 μl/well, and incubated at 37° C. in 5% CO2 incubator overnight. The sample to be tested was diluted to a certain concentration with 1640 medium containing 3% FBS, and further diluted at 4-fold dilutions (8 dilutions). The supernatant in the culture plate was discarded, and serial dilutions of the sample to be tested was added into the plate at 100 μl/well with a negative control and blank control set aside, incubated at 37° C. under 5% CO2 for 20-24 hours. Following examination under microscope, the supernatant was discarded, each well was added 50 μl 0.05% crystal violet solution (50 mg crystal violet was dissolved in 20 ml anhydrous ethanol, and water was added to the volume of 100 ml, then stored at room temperature) and stained for 3-5 minutes. The crystal violet was carefully washed with flowing water, the remaining water was removed by spin-drying, a destaining solution (50 ml distilled water, 50 ml anhydrous ethanol, and 0.1 ml glacial acetic acid were thoroughly mixed and stored at room temperature) was added at 100 μl/well, then the reading at OD570 was measured on a microplate reader (Bio-Rad 680) (reference wavelength of 630 nm). The inhibitory concentration 50 (IC50) of each sample was calculated by a four-parameter Logistic fitting using Sigmaplot10.0 software. The IC50 for CPT and each mutant of NCPT-1, NCPT-2, and NCPT-3 were calculated, and the activity change of each mutant was represented as a ratio of the IC50 of each mutant to that of CPT (Table 1).

H460 cells = assay: Time-effect relationship in killing lung cancer cell line (phase contrast morphology); assay type: cell-based, human; conditions: 50 ng/ml
Protocol: FIG. 1. Observation of the killing effect of NCPT-1.M1 on H460 cells under phase contrast microscope.
At 37° C., H460 cells (ATCC) were adherently cultured to logarithmic growth phase in RPMI1640 medium containing 10% FBS in cell culture flask in 5% CO2 incubator.

NCI-H460 cells [4] = assay: Internucleosomal DNA fragmentation (agarose gel electrophoresis); assay type: cell-based, human; conditions: 15 ng/ml, 2 hours
Protocol: FIG. 5. The agarose gel electrophoresis analysis of internucleosomal DNA fragmentation of NCI-H460 cells after incubated with NCPT-1.M1 for varying time.
Marker: 200 bp-2000 bp DNA markers with 200 bp interval;
Control: solvent control;
2 h, 4 h, 6 h: represent incubation with 15 ng/ml NCPT-1.M1 for 2 h, 4 h, 6 h, respectively.
NCI-H460 cells at logarithmic growth phase were incubated with NCPT-1.M1 (a final concentration of […]) for 2 h, 4 h, 6 h, and the medium control group was not added with NCPT-1.M1. All adherent and floating cells (approximately 5×10^6) were collected, and DNA was extracted (Wen Jinkun, Principles and experimental techniques of medical molecular biology, 236-237 (1999)). DNA sample was removed and mixed with 6× loading buffer, and subjected to 1.8% agarose gel (a final concentration of ethidium bromide of 0.5 μg/ml) electrophoresis. The gel was observed under ultraviolet light source and photographed, and analyzed for DNA fragmentation. […] To the contrary, in the DNA electrophoresis of the medium control group, a band corresponding to a macromolecule is very near to the loading well, and there is no DNA fragmentation ladder. With the increasing incubation time with NCPT-1.M1, the DNA ladder becomes weaker and vague, and is illegible (FIG. 5), which might be due to DNA being degraded into smaller fragments.

B1: NCPT-1.M1: MG+His6+NCPT-1 fusion protein, SEQ ID NO: 5 (protein)
chain: MGHHHHHHTLSSPNSKNEKALGRKINSWESSRSGHSFLSNLHLRNGELVIHEKGFYYIYSQTYFRFQEEIKENTKNDKQMVQYIYKYTSYPDPILLMKSARNSCWSKDAEYGLYSIYQGGIFELKENDRIFVSVTNEHLIDMDHEASFFGAFLVGGGGGGRVAAHITGTRGRSNT
modifications: NCPT-1.M1 polypeptide sequence
apoptosis by TUNEL staining [1]: a large number of NCI-H460 cells experience apoptosis; also recorded: Almost all of the tumor cells exhibit characteristic of apoptosis | average tumor volume after treatment ([2]; 15 mg/kg i.p. once a day for 3 consecutive days, day 4): 286 mm^3 | apoptosis of tumor cells in tumor tissue (HE and TUNEL staining) ([2]; 15 mg/kg i.p. once a day for 3 days): can quickly result in apoptosis of a lot of MM tumor cells | average tumor volume before dosing ([2]; RPMI8226 xenograft, before dosing): 798 mm^3 | Ratio of IC50 of mutants to IC50 of CPT (H460 cells) (NCI-H460 cells [3]; 20-24 hours, crystal violet): 0.1 | killing activity compared to that of CPT (NCI-H460 cells [3]; based on IC50): significantly higher than that of CPT | incubation time for appearance of morphological apoptosis changes (H460 cells): 1-2 h | incubation time resulting in apoptosis of maximum number of cells (H460 cells): 6 h | DNA fragmentation ladder (NCI-H460 cells [4]): showed obvious ladder
